The record followed here is patent publication US20080260748A1.

In the assay the target is desmocollin 2 (DSC2) (human) (UniProt Q02487). The assay is described as follows: flow cytometry on NCI-H358 cells, control human IgG. (In general: A flow cytometer gives signals particle by particle.)

B1: anti-DSC2 human antibody 332 (antibody, V domains shown)
VH: QVQLQQWGAGLLKPSETLSLTCAVYGGSFSGNYWSWIRQPPGKGLEWIGEINHSGNTKYNPSLKSRVAISADTSKNQFSLKLSSVTAADTAVYYCARVPFDWFHPPGEPPFYYYYGMDVWGQGTTVTVSS
VL: HVILTQPPSVSGAPGQRVTISCTGSSSNIGAGYDVHWYQQLPGTAPKLLIYGNSNRPSGVPDRFSGSKSGTSASLAITGLQAEDEADYYCQSYDSSLSGWVFGGGTKLTVPG
B1: the MFI (ratio of intensity to control IgG) was determined as 9.48.
